Assay results as given in US11142588B2, “Polypeptides which bind C-X-C chemokine receptor type 4 (CXCR4) and methods of treating or reducing the risk of fibrosis and cancer” (AdAlta Limited, priority 2015, dated 2021).
Several values for one entry are separate records, joined by “and”; a condition that tells them apart may be missing. Equal values may be shown once. Entries after “also recorded” stand apart in the source; their conditions may differ.

T1: CCR4 (Homo sapiens, UniProt P51679)
T1 sequence (P51679 1-360): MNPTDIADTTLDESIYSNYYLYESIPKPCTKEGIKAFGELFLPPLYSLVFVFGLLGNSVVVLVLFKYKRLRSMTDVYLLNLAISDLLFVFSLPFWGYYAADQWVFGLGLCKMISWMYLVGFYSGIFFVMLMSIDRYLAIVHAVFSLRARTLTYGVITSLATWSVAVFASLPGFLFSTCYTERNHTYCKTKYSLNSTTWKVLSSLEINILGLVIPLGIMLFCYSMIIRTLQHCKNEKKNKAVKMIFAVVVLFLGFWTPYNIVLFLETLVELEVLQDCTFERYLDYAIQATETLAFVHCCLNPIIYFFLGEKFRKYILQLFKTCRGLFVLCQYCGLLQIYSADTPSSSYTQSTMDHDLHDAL


Tests used:
[1] = cited from earlier work
[2] = biological target: T2, human CXCR4 (CXCR4 positive lipoparticles) (Homo sapiens, UniProt P61073); assay: Biacore SPR kinetic binding to immobilised CXCR4 lipoparticles
T2 construct: purchased Integral Molecular LEV-101B
T2 sequence (P61073 whole entry): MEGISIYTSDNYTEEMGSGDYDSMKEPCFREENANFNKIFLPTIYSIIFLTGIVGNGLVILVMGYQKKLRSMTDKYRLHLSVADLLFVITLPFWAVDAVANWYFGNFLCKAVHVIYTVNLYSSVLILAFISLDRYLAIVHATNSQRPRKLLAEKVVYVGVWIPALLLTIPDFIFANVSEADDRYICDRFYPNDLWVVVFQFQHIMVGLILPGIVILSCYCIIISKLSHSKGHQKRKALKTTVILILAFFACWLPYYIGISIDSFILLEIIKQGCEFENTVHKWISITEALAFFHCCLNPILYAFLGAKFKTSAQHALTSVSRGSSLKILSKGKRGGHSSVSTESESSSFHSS
Procedure: (FIGS. 2A-2C, 5A-5C, 11A-11D, 17A-17B) Kinetic binding analysis of selected i-bodies with immobilized CXCR4 lipoparticles were performed at 25° C. using Biacore T200 instrument (GE Healthcare, Uppsala, Sweden). Streptavidin immobilization was performed in 1×HBS-P+ running buffer (10 mM HEPES, 150 mM NaCl, 0.05% [v/v] Tween-20). […] All binding experiments involving lipoparticles were performed with 1×HBS/BSA (10 mM HEPES, 150 mM NaCl, 1 mg/mL BSA) as instrument running buffer. […] In order to determine binding kinetics, serial dilutions (three-fold) of i-bodies diluted in 1×HBS/BSA were injected over immobilized lipoparticles with the association and dissociation phases monitored for 60 sec and 600 sec, respectively. A control measurement of the instrument running buffer (“zero-buffer” blank) solution was also included for double referencing purposes. Collected experimental data were processed using Scrubber software (www.biologic.com.au). Kinetic parameters (ka=association and kd=dissociation rate constants) and equilibrium dissociation constant (KD=kd/ka) were derived by fitting each set of experimental data to a Langmuir 1:1 binding model. All interaction measurements were performed in triplicate and the derived binding parameters reported as averaged values±standard deviation.

[3] = test system: white blood cells, LSK and LSKSLAM cells in peripheral blood; assay: Stem cell mobilisation in mice after i.v. injection; type: in vivo, mouse; settings: 1 and 3 hours after i.v. injection, compared to AMD3100
Procedure: After 1 and 3 hours, mice were euthanized and peripheral blood (PB) harvested. Spleens were harvested and weighed to assess for splenomegaly (enlargement of the spleen). Samples were lysed to remove red blood cells and 4000 cells plated for LPP (low-proliferative potential) and CFU-HPP (colony forming unit-high proliferative potential) colonies (colony counting 7 days post-plating). The remaining cells were stained with an antibody cocktail to assess lineage-committed, stem and progenitor cell content. Flow cytometric analysis was used to calculate numbers of lineage-committed cells, haemopoietic stem and progenitor cells as well as enriched HSC per volume of PB.

CXCR4 [4] = biological target: T3, CXCR4 (Homo sapiens, UniProt P61073); assay: Calcium flux assay (Screen Quest Fluo-8, FLIPR) in antagonist mode; type: cell-based; settings: SDF-1 at EC80
T3 sequence (P61073 whole entry): as above

[5] = test system: Human platelet rich plasma; assay: SDF-1α induced platelet aggregation; type: cell-based; settings: 10 or 20 ug/mL, 100 nM SDF-1 alpha
Procedure: Experiments were carried out to examine whether the i-bodies could block platelet aggregation induced by SDF-1α. […] In the presence of negative control i-body 21H5 (or the isotype control for 12G5: mouse IgG2a). SDF-1 induced a robust and reproducible aggregation (the descending black curves, which indicate an increase in light transmission), which matches with what has been previously published.

[6] = Murine air pouch model with SDF-1; type: in vivo, BALB/c mice; settings: intraperitoneal, 30 minutes before SDF-1 6 μg
Procedure: The ability of i-bodies to block inflammation was evaluated in an in vivo murine air pouch model. The subcutaneous (s.c.) air pouch is an in vivo model used to study acute and chronic inflammation (Durate et al, Models of Inflammation: Carrageenan Air Pouch, Current Protocols in Pharmacology 5.6.1-5.6.8, March 2012). Injection of irritants into an air pouch in rats or mice induces an inflammatory response that can be quantified by the volume of exudate produced, the infiltration of cells, and the release of inflammatory mediators. An air pouch, is generated by injection of sterile air under the skin of the back of the mouse. […] Air pouch lavage fluid is then analyzed for cell trafficking and cytokine release.
The air pouch assay was performed on 7-week-old BALB/c mice. On days 1 and 3, 0.2 ml/g initial body weight (IBW) of sterile air was injected under the back skin to create the pouch. […] Thirty minutes later, SDF-1 (6 μg) was injected into the pouch. Four hours later, the mice were killed in a CO2 chamber and the air pouch was washed. Cells were collected, counted, and characterized by flow cytometry.

CXCR4 [7] = biological target: T3, CXCR4; assay: β-arrestin BRET assay, antagonist mode with 100 nM SDF-1; type: cell-based; parameters: expressed in transfected cells; host or cells: HEK293FT; settings: only an order of magnitude is printed in the cell
Text: (FIGS. 3A-3F and 14) BRET was used in this study to assess the real-time kinetic profiles resulting from any consequent increase in proximity, building upon the previously validated monitoring of GPCR/β-arrestin interactions utilizing BRET. BRET occurs between a complementary Renilla luciferase (Rluc) variant as donor and green fluorescent protein variant as acceptor. Upon Rluc-catalyzed oxidation of the coelenterazine substrate (such as coelenterazine h for first generation BRET (BRET) or EnduRen for extended BRET (eBRET), energy is transferred to the acceptor if within 10 nm, resulting in acceptor light emission peaking at a characteristic wavelength. BRET (3-arrestin assays were carried out as described previously (See, H. B., Seeber, R. M., Kocan, M., Eidne, K. A. and Pfleger, K. D. (2011) ‘Application of G protein-coupled receptor-heteromer identification technology to monitor beta-arrestin recruitment to G protein-coupled receptor heteromers’, Assay Drug Dev Technol, 9(1), 21-30, 10.1089/adt.2010.0336). CXCR4/Rluc8 cDNA constructs were generated from plasmids containing the respective receptor cDNA tagged with Rluc kindly provided by Aron Chakera (Oxford University, United Kingdom). The β-arrestin 2/Venus cDNA construct was prepared previously from pCS2-Venus kindly provided by Atsushi Miyawaki (RIKEN Brain Science Institute, Wako-city, Japan). BRET technology in cells transiently expressing CXCR4/Rluc8 and β-arrestin2/Venus in the presence of 100 nM SDF-1 agonist was evaluated in the presence of the CXCR4 agonist SDF-1/CXCL12 and the i-bodies. HEK293FT cells were maintained at 37° C., 5% CO2 in Complete Media (Dulbecco's modified Eagle's medium containing 0.3 mg/mL glutamine, 100 IU/mL penicillin, and […] streptomycin; Gibco) supplemented with 10% fetal calf serum (FCS) and […] Geneticin (Gibco). Transfections were carried out 24 h after seeding using Genejuice (Novagen) according to manufacturer's instructions. Cells were harvested with 0.05% Trypsin-EDTA (Gibco). HEK293FT cells were transfected using FuGene6 (Promega). 5 μM coelenterazine h (Promega) in HBSS was used as the luciferase substrate solution. Cells were harvested 24 h post-transfection in HEPES-buffered phenol red-free Complete Medium containing 5% FCS and added to a poly-L-lysine-coated white 96-well plate (Nunc). Dose-response curves were generated using BRET, with medium in the plate being replaced with PBS containing […] coelenterazine h (Molecular Probes) and assays carried out immediately. For these assays, 48 h post-transfection, the plate was incubated at […], 5% CO2 for 2 h with […] EnduRen (Promega) to ensure substrate equilibrium was reached. All BRET measurements were taken at 37° C. using the VICTOR Light plate reader with Wallac 1420 software (PerkinElmer). Filtered light emissions were sequentially measured at 400-475 and 520-540 nm. The BRET signal was calculated by subtracting the ratio of 520-540 nm emission over 400-475 nm emission for a vehicle-treated cell sample from the same ratio for a second aliquot of the same cells treated with agonist (in this instance in the presence of SDF-1 or CXCL12) and i-body (ADCX-99, ADCX-272, ACDX-6, ACDX-306, ADCX-668) at various concentrations. Data are mean±S.E.M. of four independent experiments carried out in duplicate.
Binding of the i-bodies to CXCR4 were examined in a β-Arrestin BRET assay as described in See, Heng B et al (2011) Assay and Drug Development Technologies 9(1):21-30. The i-bodes were examined at ten concentrations with and without 100 nM SDF-1 with the addition of ‘vehicle’ and ‘SDF-1+vehicle’ controls in order to characterise if the i-bodies are agonist or antagonists of CXCR4 activity.

CCR4 = biological target: T1, CCR4; assay: PathHunter (DiscoverX) β-arrestin assay, CCR4; type: cell-based
Procedure: (FIG. 9) The PathHunter® β-Arrestin assay (DiscoveRx) was performed according to the manufacturer's protocol. Cells were seeded into white walled, 384-well tissue culture-treated microplates (Corning) and normalized at 5,000 cells (or 10,000 cells for CXCR4) in a total volume of […]. Cell growth was at 37° C. (5% CO2, 95% relative humidity). […] Agonists were then added at the EC80 concentration and incubation was continued at 37° C. for 90 min (or 180 min for CCR1). Assay signal was generated through a single addition of 15 μL (50% v/v) of PathHunter Detection reagent cocktail, followed by 1 h incubation at room temperature. Microplates were read following signal generation with a PerkinElmer Envision instrument for chemiluminescent signal detection of relative light units (RLU).

[8] = CXCR4 expressed on lipoparticles (Table 4)
[9] = off-rate, CXCR4 expressed on lipoparticles (Table 3)

Calcium Inhibition EC50 (CXCR4 [4])	dissociation rate constant (kd) [2, 9]	IC50 in β-Arrestin BRET assay (Antagonist mode in the presence of 100 nM SDF-1) (CXCR4 [7])	CCR4 activity (CCR4) [%]	Molecule	effectiveness relative to AMD3100 at releasing neutrophils from the bone marrow ([1]; Hatse et al 2005) [fold]	diet-induced atherosclerotic lesion development ([1]; long-term inhibition, Apoe−/− and Ldlr−/− mice, Zernecke et al 2008)	Ka [2, 8]	mobilisation of white blood cells [3]	blocking of SDF-1α induced platelet aggregation [5]	cell migration / leukocyte infiltration into the air pouch [6]	dissociation rate constant (kd) [2, 8]
				c1ccc(CNCc2ccc(CN3CCCNCCNCCCNCC3)cc2)nc1 [AMD3465]	10	aggravated diet-induced atherosclerotic lesion development					
uM				AM4-746: affinity matured CXCR4 i-body, SEQ ID NO: 76 (protein, protein sequence encoding AM4-746) LQVDIVPSQGEISVGESKFFLCQVAGSKSNIRISWFSPNGEKLTPNQQRISVVWNDDSSSTLTIYNANIDDAGIYKCVVYRTGGYRHRYLKLGEATVNVKIFQ			2.5e+06 M⁻¹ s⁻¹	No mobilisation	blocked aggregation to the same extent as the MAb12G5	inhibiting leukocyte infiltration; also recorded: inhibited cell migration	
	0.01445	~uM	−5	AM5-245: affinity matured CXCR4 i-body, SEQ ID NO: 68 (protein, protein sequence encoding AM5-245) LQVDIVPSQGEISVGESKFFLCQAAGSGSHIRISWFSPNGEKLTPNQQRISVVWNDDSSSTLTIYNANIDDAGIYKCVVWRTGGYRHRALVLGEATVNVKIFQ			813000 M⁻¹ s⁻¹ and 771000 M⁻¹ s⁻¹				12100 M⁻¹ s⁻¹ and 12300 M⁻¹ s⁻¹
uM	0.1153			AM4-1121: affinity matured CXCR4 i-body, SEQ ID NO: 48 (protein, protein sequence encoding AM4-1121) LQVDIVPSQGEISVGESKFFLCQVAGSKSGIRISWFSPNGEKLTPNQQRISVVWNDDSSSTLTIYNANIDDAGIYKCVVYRTGGYRHRYLRLGEATVNVKIFQ			1.289e+06 M⁻¹ s⁻¹ and 1.42e+06 M⁻¹ s⁻¹	No mobilisation	most effective; also recorded: most efficient	inhibiting leukocyte infiltration; also recorded: inhibited cell migration	9290 M⁻¹ s⁻¹ and 9540 M⁻¹ s⁻¹
